Literature values, collected in article PMC8999013.

Molecular target: integrin α7B cytoplasmic domain (Homo sapiens) (UniProt Q13683)
Test: intrinsic tryptophan fluorescence

integrin α7B cytoplasmic domain (Homo sapiens), sequence (Q13683 1104-1181): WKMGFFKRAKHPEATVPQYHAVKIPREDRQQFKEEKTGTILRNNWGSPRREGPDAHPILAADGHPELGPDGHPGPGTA
CIB2, sequence (O75838 whole entry): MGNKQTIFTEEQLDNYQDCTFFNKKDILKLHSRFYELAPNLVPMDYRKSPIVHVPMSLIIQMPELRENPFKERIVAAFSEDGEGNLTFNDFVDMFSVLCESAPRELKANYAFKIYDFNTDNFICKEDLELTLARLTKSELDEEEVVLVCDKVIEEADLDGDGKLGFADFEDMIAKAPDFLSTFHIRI

## CIB2 (from UniProt O75838)
  Kd: 304 nM
